# T1: GST-recombinant human FoXO3a, O43524
# T1 chain: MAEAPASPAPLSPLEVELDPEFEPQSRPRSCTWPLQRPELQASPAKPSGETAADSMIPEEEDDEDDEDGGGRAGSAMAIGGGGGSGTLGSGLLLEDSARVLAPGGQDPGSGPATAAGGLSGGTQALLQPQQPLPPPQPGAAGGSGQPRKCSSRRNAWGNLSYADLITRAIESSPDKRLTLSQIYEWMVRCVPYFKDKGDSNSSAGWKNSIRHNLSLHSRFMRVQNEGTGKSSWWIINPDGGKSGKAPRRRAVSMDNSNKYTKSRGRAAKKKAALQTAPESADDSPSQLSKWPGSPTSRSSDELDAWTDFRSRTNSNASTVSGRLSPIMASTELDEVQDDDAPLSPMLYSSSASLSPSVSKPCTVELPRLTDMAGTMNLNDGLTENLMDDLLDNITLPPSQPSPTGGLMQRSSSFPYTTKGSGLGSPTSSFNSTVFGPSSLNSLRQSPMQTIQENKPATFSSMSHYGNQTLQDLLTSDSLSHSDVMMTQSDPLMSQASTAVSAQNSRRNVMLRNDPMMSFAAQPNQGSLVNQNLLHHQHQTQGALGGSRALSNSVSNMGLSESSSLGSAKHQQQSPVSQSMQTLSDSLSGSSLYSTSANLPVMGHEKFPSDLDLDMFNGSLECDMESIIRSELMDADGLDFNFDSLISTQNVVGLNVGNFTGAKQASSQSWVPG
# T2: full length recombinant human ERα protein (Invitrogen), P03372
# T2 chain: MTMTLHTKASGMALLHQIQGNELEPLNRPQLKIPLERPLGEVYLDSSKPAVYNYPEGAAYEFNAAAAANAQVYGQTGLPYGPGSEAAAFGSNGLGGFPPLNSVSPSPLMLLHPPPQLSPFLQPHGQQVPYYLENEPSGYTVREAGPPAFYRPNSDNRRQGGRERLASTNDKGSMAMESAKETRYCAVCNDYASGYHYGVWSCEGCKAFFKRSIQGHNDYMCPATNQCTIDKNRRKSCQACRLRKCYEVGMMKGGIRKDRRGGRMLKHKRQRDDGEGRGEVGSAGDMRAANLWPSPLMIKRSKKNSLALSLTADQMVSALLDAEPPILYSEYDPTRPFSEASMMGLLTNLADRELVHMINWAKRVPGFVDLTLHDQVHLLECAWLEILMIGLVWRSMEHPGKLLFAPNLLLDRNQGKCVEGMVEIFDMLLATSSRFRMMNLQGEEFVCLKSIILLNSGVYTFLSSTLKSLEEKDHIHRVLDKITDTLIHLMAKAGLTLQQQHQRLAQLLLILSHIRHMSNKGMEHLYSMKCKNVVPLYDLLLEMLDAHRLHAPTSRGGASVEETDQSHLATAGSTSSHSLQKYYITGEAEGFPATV
# B1: recombinant LMTK3 kinase domain (protein)
# chain: LSYLQEIGSGWFGKVILGEIFSDYTPAQVVVKELRASAGPLEQRKFISEAQPYRSLQHPNVLQCLGLCVETLPFLLIMEFCQLGDLKRYLRAQRPPEGLSPELPPRDLRTLQRMGLEIARGLAHLHSHNYVHSDLALRNCLLTSDLTVRIGDYGLAHSNYKEDYYLTPERLWIPLRWAAPELLGELHGTFMVVDQSRESNIWSLGVTLWELFEFGAQPYRHLSDEEVLAFVVRQQHVKLARPRLKLPYADYWYDILQSCWRPPAQRPSASDLQLQLTYL
# How the values were obtained:
# [1] = target: recombinant PKC (Promega)
# [2] = target: T1, GST-recombinant human FoXO3a, O43524
# [3] = target: T2, full length recombinant human ERα …
protein,measurement,setting,value
B1,"in vitro kinase assay, PKC phosphorylation of histone",[1],LMTK3 inhibits the ability of PKC to phosphorylate histone
same,in vitro kinase assay (32P autoradiography),[2],LMTK3 directly phosphorylates ... FoxO3a
same,in vitro phosphorylation followed by in vitro proteasome degradation assay,[3],phosphorylation of ERα by LMTK3 (FIG. 20d) rescued ERα from in vitro proteasome-mediated degradation (FIG. 20e)

# Source: patent publication US20160356775
